Drawing on paper PMC12102759 (2025), this text covers screen value for 61 variants.

The chains are these.
B1: CBL peptide 538-553 (E3 ubiquitin-protein ligase CBL), 16-mer library wild type / YES SH3 (YES1 SH3 domain, residues 90-152) (parent complex)
chain 1: TLRDLPPPPPPDRPYS
chain 2: not shown
B2: SH3BP2 peptide 408-423 (SH3 domain-binding protein 2), 16-mer library wild type / TNKS ANK (TNKS 12 ANK repeats, residues 174-649) (parent complex)
chain 1: PQLPHLQRSPPDGQSF
chain 2: TGVPAVSGALRELLEACRNGDVSRVKRLVDAANVNAKDMAGRKSSPLHFAAGFGRKDVVEHLLQMGANVHARDDGGLIPLHNACSFGHAEVVSLLLCQGADPNARDNWNYTPLHEAAIKGKIDVCIVLLQHGADPNIRNTDGKSALDLADPSAKAVLTGEYKKDELLEAARSGNEEKLMALLTPLNVNCHASDGRKSTPLHLAAGYNRVRIVQLLLQHGADVHAKDKGGLVPLHNACSYGHYEVTELLLKHGACVNAMDLWQFTPLHEAASKNRVEVCSLLLSHGADPTLVNCHGKSAVDMAPTPELRERLTYEFKGHSLLQAAREADLAKVKKTLALEIINFKQPQSHETALHCAVASLHPKRKQVTELLLRKGANVNEKNKDFMTPLHVAAERAHNDVMEVLHKHGAKMNALDTLGQTALHRAALAGHLQTCRLLLSYGSDPSIISLQGFTAAQMGNEAVQQILSESTPIRTSD

In one experiment the parent is B1. The experiment can be described thus: proteomic peptide phage display deep mutational scan (ProP-PD DMS): M13 P8 16-mer library selected against immobilised GST-tagged bait for four days (rounds), NGS of the eluted pools per day and pseudo-replica; bait immobilised on MaxiSorp plates (10 µg), library pre-cleared on GST, 2 h binding at 4 °C, five washes; one round per day, days 1-4; value from days 2 and 3.
Turning to chain 1 L5I, the screen value is 5.25e-05 average fractional NGS count over selection days 2 and 3 (reads of this peptide / all reads for the bait, averaged over ….

chain 1 D4S: the screen value is 7.92e-05 average fractional NGS count over selection days 2 and 3 (reads of this peptide / all reads for the bait, averaged over ….

Turning to chain 1 D4T, the screen value was 0.00181 average fractional NGS count over selection days 2 and 3 (reads of this peptide / all reads for the bait, averaged over ….

With chain 1 D4H, the screen value is 0.000257 average fractional NGS count over selection days 2 and 3 (reads of this peptide / all reads for the bait, averaged over ….

As for chain 1 P14S, the screen value is 0.00038 average fractional NGS count over selection days 2 and 3 (reads of this peptide / all reads for the bait, averaged over ….

chain 1 P10I: the screen value was 0.00183 average fractional NGS count over selection days 2 and 3 (reads of this peptide / all reads for the bait, averaged over ….

In the case of chain 1 P10N, the screen value was 0.000197 average fractional NGS count over selection days 2 and 3 (reads of this peptide / all reads for the bait, averaged over ….

Consider chain 1 P10W, for which the screen value was 0.00035 average fractional NGS count over selection days 2 and 3 (reads of this peptide / all reads for the bait, averaged over ….

For the variant chain 1 Y15Q, the screen value was 0.000766 average fractional NGS count over selection days 2 and 3 (reads of this peptide / all reads for the bait, averaged over ….

On to chain 1 L2A, for which the screen value was 0.00082 average fractional NGS count over selection days 2 and 3 (reads of this peptide / all reads for the bait, averaged over ….

chain 1 P7M: the screen value is 0.000243 average fractional NGS count over selection days 2 and 3 (reads of this peptide / all reads for the bait, averaged over ….

For the variant chain 1 R3F, the screen value is 0.000372 average fractional NGS count over selection days 2 and 3 (reads of this peptide / all reads for the bait, averaged over ….

Take chain 1 R3I: the screen value is 0.000159 average fractional NGS count over selection days 2 and 3 (reads of this peptide / all reads for the bait, averaged over ….

As for chain 1 P11R, the screen value is 0.000288 average fractional NGS count over selection days 2 and 3 (reads of this peptide / all reads for the bait, averaged over ….

For the variant chain 1 P11Y, the screen value was 0.00117 average fractional NGS count over selection days 2 and 3 (reads of this peptide / all reads for the bait, averaged over ….

As for chain 1 S16L, the screen value was 0.000883 average fractional NGS count over selection days 2 and 3 (reads of this peptide / all reads for the bait, averaged over ….

With chain 1 S16A, the screen value was 0.00886 average fractional NGS count over selection days 2 and 3 (reads of this peptide / all reads for the bait, averaged over ….

Regarding chain 1 R13T, the screen value is 0.000227 average fractional NGS count over selection days 2 and 3 (reads of this peptide / all reads for the bait, averaged over ….

For the variant chain 1 R13S, the screen value was 0.000102 average fractional NGS count over selection days 2 and 3 (reads of this peptide / all reads for the bait, averaged over ….

Another experiment covers variants of B2. The experiment is described as above.
As to chain 1 PQLAHLQRSPPDGQSF, the screen value was 0.00484 average fractional NGS count over selection days 2 and 3 (reads of this peptide / all reads for the bait, averaged over ….

Consider chain 1 PQLHHLQRSPPDGQSF, for which the screen value was 0.00111 average fractional NGS count over selection days 2 and 3 (reads of this peptide / all reads for the bait, averaged over ….

chain 1 PQLDHLQRSPPDGQSF: the screen value was 0.000447 average fractional NGS count over selection days 2 and 3 (reads of this peptide / all reads for the bait, averaged over ….

In the case of chain 1 PQRPHLQRSPPDGQSF, the screen value is 0.000308 average fractional NGS count over selection days 2 and 3 (reads of this peptide / all reads for the bait, averaged over ….

As for chain 1 PQAPHLQRSPPDGQSF, the screen value was 0.000216 average fractional NGS count over selection days 2 and 3 (reads of this peptide / all reads for the bait, averaged over ….

Take chain 1 PQIPHLQRSPPDGQSF: the screen value was 0.000205 average fractional NGS count over selection days 2 and 3 (reads of this peptide / all reads for the bait, averaged over ….

For chain 1 PQEPHLQRSPPDGQSF, the screen value was 0.00036 average fractional NGS count over selection days 2 and 3 (reads of this peptide / all reads for the bait, averaged over ….

Regarding chain 1 PQPPHLQRSPPDGQSF, the screen value was 0.000341 average fractional NGS count over selection days 2 and 3 (reads of this peptide / all reads for the bait, averaged over ….

As to chain 1 PQSPHLQRSPPDGQSF, the screen value is 0.000201 average fractional NGS count over selection days 2 and 3 (reads of this peptide / all reads for the bait, averaged over ….

chain 1 PQTPHLQRSPPDGQSF: the screen value was 0.000337 average fractional NGS count over selection days 2 and 3 (reads of this peptide / all reads for the bait, averaged over ….

Take chain 1 PQVPHLQRSPPDGQSF: the screen value was 0.000203 average fractional NGS count over selection days 2 and 3 (reads of this peptide / all reads for the bait, averaged over ….

Regarding chain 1 PQNPHLQRSPPDGQSF, the screen value was 0.000433 average fractional NGS count over selection days 2 and 3 (reads of this peptide / all reads for the bait, averaged over ….

Turning to chain 1 PQLPHLQRSPGDGQSF, the screen value is 0.0132 average fractional NGS count over selection days 2 and 3 (reads of this peptide / all reads for the bait, averaged over ….

With chain 1 PQLPHLQRSPPEGQSF, the screen value was 0.00128 average fractional NGS count over selection days 2 and 3 (reads of this peptide / all reads for the bait, averaged over ….

With chain 1 PQLPHLQRSPPQGQSF, the screen value is 0.000387 average fractional NGS count over selection days 2 and 3 (reads of this peptide / all reads for the bait, averaged over ….

In the case of chain 1 PQLPHPQRSPPDGQSF, the screen value was 0.000739 average fractional NGS count over selection days 2 and 3 (reads of this peptide / all reads for the bait, averaged over ….

With chain 1 PQLPHTQRSPPDGQSF, the screen value is 0.000389 average fractional NGS count over selection days 2 and 3 (reads of this peptide / all reads for the bait, averaged over ….

On to chain 1 PQLPHQQRSPPDGQSF, for which the screen value is 0.000145 average fractional NGS count over selection days 2 and 3 (reads of this peptide / all reads for the bait, averaged over ….

Regarding chain 1 PQLPHLQRSEPDGQSF, the screen value is 0.00215 average fractional NGS count over selection days 2 and 3 (reads of this peptide / all reads for the bait, averaged over ….

For chain 1 PQLPHLQRSDPDGQSF, the screen value is 0.000749 average fractional NGS count over selection days 2 and 3 (reads of this peptide / all reads for the bait, averaged over ….

With chain 1 PQLPHLQRSIPDGQSF, the screen value is 0.00249 average fractional NGS count over selection days 2 and 3 (reads of this peptide / all reads for the bait, averaged over ….

For the variant chain 1 PQLPHLQRSTPDGQSF, the screen value is 0.00166 average fractional NGS count over selection days 2 and 3 (reads of this peptide / all reads for the bait, averaged over ….

Turning to chain 1 PQLPHLQRSYPDGQSF, the screen value was 0.000858 average fractional NGS count over selection days 2 and 3 (reads of this peptide / all reads for the bait, averaged over ….

Turning to chain 1 PQLPHLQRSPPDGQVF, the screen value is 0.000578 average fractional NGS count over selection days 2 and 3 (reads of this peptide / all reads for the bait, averaged over ….

Turning to chain 1 PQLPHLQRSPPDGQEF, the screen value was 0.000326 average fractional NGS count over selection days 2 and 3 (reads of this peptide / all reads for the bait, averaged over ….

chain 1 PQLPHLQRSPPDGQMF: the screen value is 0.000289 average fractional NGS count over selection days 2 and 3 (reads of this peptide / all reads for the bait, averaged over ….

With chain 1 PQLPHLQRSPPDGQKF, the screen value is 0.000127 average fractional NGS count over selection days 2 and 3 (reads of this peptide / all reads for the bait, averaged over ….

Consider chain 1 PQLPHLQRSPPDGESF, for which the screen value is 0.000266 average fractional NGS count over selection days 2 and 3 (reads of this peptide / all reads for the bait, averaged over ….

Take chain 1 PQLPQLQRSPPDGQSF: the screen value was 0.00258 average fractional NGS count over selection days 2 and 3 (reads of this peptide / all reads for the bait, averaged over ….

With chain 1 PQLPFLQRSPPDGQSF, the screen value is 0.00112 average fractional NGS count over selection days 2 and 3 (reads of this peptide / all reads for the bait, averaged over ….

Take chain 1 PQLPHLQRIPPDGQSF: the screen value was 0.00144 average fractional NGS count over selection days 2 and 3 (reads of this peptide / all reads for the bait, averaged over ….

Turning to chain 1 PQLPHLQREPPDGQSF, the screen value was 0.00024 average fractional NGS count over selection days 2 and 3 (reads of this peptide / all reads for the bait, averaged over ….

As for chain 1 PQLPHLERSPPDGQSF, the screen value was 0.000295 average fractional NGS count over selection days 2 and 3 (reads of this peptide / all reads for the bait, averaged over ….

Regarding chain 1 PQLPHLGRSPPDGQSF, the screen value was 0.00109 average fractional NGS count over selection days 2 and 3 (reads of this peptide / all reads for the bait, averaged over ….

Turning to chain 1 PQLPHLWRSPPDGQSF, the screen value is 0.000561 average fractional NGS count over selection days 2 and 3 (reads of this peptide / all reads for the bait, averaged over ….

Take chain 1 PQLPHLQRSPPDGQSI: the screen value was 0.000483 average fractional NGS count over selection days 2 and 3 (reads of this peptide / all reads for the bait, averaged over ….

With chain 1 PQLPHLQRSPPDGQSG, the screen value is 0.000376 average fractional NGS count over selection days 2 and 3 (reads of this peptide / all reads for the bait, averaged over ….

Consider chain 1 PQLPHLQRSPPDGQSL, for which the screen value was 0.00209 average fractional NGS count over selection days 2 and 3 (reads of this peptide / all reads for the bait, averaged over ….

For chain 1 PQLPHLQRSPPDGQST, the screen value was 0.000194 average fractional NGS count over selection days 2 and 3 (reads of this peptide / all reads for the bait, averaged over ….

With chain 1 PQLPHLQRSPPDGQSV, the screen value is 0.00271 average fractional NGS count over selection days 2 and 3 (reads of this peptide / all reads for the bait, averaged over ….

On to chain 1 PQLPHLQRSPPDGQSP, for which the screen value is 0.0012 average fractional NGS count over selection days 2 and 3 (reads of this peptide / all reads for the bait, averaged over ….

Regarding chain 1 PNLPHLQRSPPDGQSF, the screen value is 0.000225 average fractional NGS count over selection days 2 and 3 (reads of this peptide / all reads for the bait, averaged over ….
